Experimental data published in EP1379283B1, “IDENTIFICATION OF TARGET-SPECIFIC FOLDING SITES IN PEPTIDES AND PROTEINS” (Palatin Technologies, Inc., priority 2000, dated 2002).
Square brackets hold non-standard residues; d marks the D form. Ends that are not written are not given here. dChg = N[C@@H](C(=O)O)C1CCCCC1; Chg = N[C@H](C(=O)O)C1CCCCC1; Orn = NCCC[C@H](N)C(=O)O; Dap = NC[C@H](N)C(=O)O

What was measured:
uPA receptor = target: T1, uPA receptor (Homo sapiens, UniProt Q03405); assay: uPA receptor-binding assay using U937 cells and ATF as competitive ligand; details: 1 µM metallopeptide; U937 cells; ATF as competitive receptor binding ligand
T1 construct: endogenous in cells; host or cells: U937 cells
T1 sequence (Q03405 23-335): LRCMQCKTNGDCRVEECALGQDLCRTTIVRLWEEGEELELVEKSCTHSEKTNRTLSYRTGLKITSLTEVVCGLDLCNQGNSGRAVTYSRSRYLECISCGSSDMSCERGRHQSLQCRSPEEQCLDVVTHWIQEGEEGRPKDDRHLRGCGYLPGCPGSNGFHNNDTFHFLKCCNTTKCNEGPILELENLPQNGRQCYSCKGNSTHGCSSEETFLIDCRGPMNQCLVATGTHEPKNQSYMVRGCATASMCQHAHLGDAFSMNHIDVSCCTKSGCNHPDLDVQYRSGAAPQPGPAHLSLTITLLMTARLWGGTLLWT

vasopressin-1 receptor = target: T2, vasopressin-1 receptor (Rattus norvegicus, UniProt P30560); assay: vasopressin-1 receptor binding, 3H-vasopressin-1 antagonist, cell membranes from rat liver
T2 construct: cell membranes prepared from rat liver; from tissue; host or cells: rat liver membranes
T2 sequence (P30560 whole entry): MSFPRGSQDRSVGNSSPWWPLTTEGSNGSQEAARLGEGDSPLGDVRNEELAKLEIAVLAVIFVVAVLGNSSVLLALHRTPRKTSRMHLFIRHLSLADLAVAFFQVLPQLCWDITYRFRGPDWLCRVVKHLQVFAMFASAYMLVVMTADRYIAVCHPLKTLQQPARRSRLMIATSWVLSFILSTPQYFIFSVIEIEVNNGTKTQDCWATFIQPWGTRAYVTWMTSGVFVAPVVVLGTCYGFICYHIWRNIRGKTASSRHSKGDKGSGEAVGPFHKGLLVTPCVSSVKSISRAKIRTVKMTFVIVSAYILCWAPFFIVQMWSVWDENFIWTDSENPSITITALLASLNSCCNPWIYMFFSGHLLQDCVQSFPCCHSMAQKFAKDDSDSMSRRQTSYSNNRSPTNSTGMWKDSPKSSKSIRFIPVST
Description: The screening of compounds for vasopressin-1 receptor was performed using cell membranes prepared from rat liver. The assay was essentially performed as described above for the oxytocin receptor assay. In this assay 2-4 nM ^3H-vasopressin-1 antagonist (obtained from Perkin Elemer- NEN Life Sciences) was used as the radiotracer and Arg^8-vasopressin (1 µM final concentration in the assay) was used to determine non-specific binding. The assay was performed in triplicates. Activity profile for the test compounds were generated by their ability to inhibit specific binding of the radiotracer to its receptor.

oxytocin receptor = target: T3, oxytocin receptor (Rattus norvegicus, UniProt P70536); assay: oxytocin receptor binding, 3H-oxytocin, cell membranes from rat uterus; details: for % Inhibition at 1 µM Oxytocin Receptor: rat uterus membranes, 3H-oxytocin; for activity at oxytocin receptor: conclusion from Table 30
T3 construct: cell membranes prepared from rat uterus; from tissue; host or cells: rat uterus membranes
T3 sequence (P70536 1-388): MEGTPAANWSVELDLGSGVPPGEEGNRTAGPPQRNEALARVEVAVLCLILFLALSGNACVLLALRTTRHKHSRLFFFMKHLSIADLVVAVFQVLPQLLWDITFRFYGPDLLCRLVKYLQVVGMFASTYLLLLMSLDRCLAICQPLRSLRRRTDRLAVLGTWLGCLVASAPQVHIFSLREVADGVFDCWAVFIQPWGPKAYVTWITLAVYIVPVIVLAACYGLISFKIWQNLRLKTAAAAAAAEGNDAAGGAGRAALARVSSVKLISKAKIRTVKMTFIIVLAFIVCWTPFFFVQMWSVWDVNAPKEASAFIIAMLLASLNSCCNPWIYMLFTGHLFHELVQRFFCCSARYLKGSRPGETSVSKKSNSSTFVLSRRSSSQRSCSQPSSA
Description: The screening of metallopeptides for binding to oxytocin receptor was done using cell membranes prepared from rat uterus. […] The membrane preparations (10 - 50 µg/well) were incubated with 412-800 pM ^3H-oxytocin in HEPES Buffer containing 0.2% bovine serum albumin along with a test compound (1 µM final assay concentration) for 2 hours at 4° C. Non-specific binding was determined by addition of 10^-6 M oxytocin instead of the test compound. After incubation, the membranes were filtered and washed three times with ice-cold PBS. The membranes were air-dried and punched directly into scintillation vials. After addition of the scintillation cocktail, the vials were capped and gently shaken for 12 hours to dissolve the radioactivity contained in the filters. The vials were then read for tritium counts in a scintillation counter. Specific binding was determined as the radioactivity in wells containing ^3H-oxytocin alone minus the radioactivity in wells containing 10^-6 M oxytocin. The assay was performed in triplicates. The activity profile for the test compounds were generated by their ability to inhibit specific binding of the radiotracer to its receptor.

[1] = Table 30, oxytocin ligand library
[2] = Table 29, vasopressin ligand library

| Substance | % Inhibition at 1 µM Vasopressin-1 Receptor (vasopressin-1 receptor; [1]) | % Inhibition at 1 µM Oxytocin Receptor (oxytocin receptor; [1]) | % Inhibition at 1 µM Vasopressin-1 Receptor (vasopressin-1 receptor; [2]) | % Inhibition at 1 µM Oxytocin Receptor (oxytocin receptor; [2]) | further results |
| --- | --- | --- | --- | --- | --- |
| Ac-Val-Ser-Asn-Cys-Lys-Tyr-Phe-Ser-Asn-Ile-His-Trp-NH2 (Ac-VSNCKYFSNIHW-NH2; not fully specified (bridges); printed as Ac-Val-Ser-Asn-Cys-Lys-Tyr-Phe-Ser-Asn-Ile-His-Trp-NH2; also: oxorhenium(V) N3S1 metal chelate (X-X-Cys)) [SEQ ID NO:5] |  |  |  |  | % Inhibition at 1 µM (uPA receptor): 0.0% |
| Ac-Val-Ser-Asn-Lys-Cys-Tyr-Phe-Ser-Asn-Ile-His-Trp-NH2 (Ac-VSNKCYFSNIHW-NH2; not fully specified (bridges); printed as Ac-Val-Ser-Asn-Lys-Cys-Tyr-Phe-Ser-Asn-Ile-His-Trp-NH2; also: oxorhenium(V) N3S1 metal chelate (X-X-Cys)) [SEQ ID NO:6] |  |  |  |  | % Inhibition at 1 µM (uPA receptor): 13.0% |
| Ac-Val-Ser-Asn-Lys-Tyr-Cys-Phe-Ser-Asn-Ile-His-Trp-NH2 (Ac-VSNKYCFSNIHW-NH2; not fully specified (bridges); printed as Ac-Val-Ser-Asn-Lys-Tyr-Cys-Phe-Ser-Asn-Ile-His-Trp-NH2; also: oxorhenium(V) N3S1 metal chelate (X-X-Cys)) [SEQ ID NO:7] |  |  |  |  | % Inhibition at 1 µM (uPA receptor): 18.0% |
| Ac-Val-Ser-Asn-Lys-Tyr-Phe-Cys-Ser-Asn-Ile-His-Trp-NH2 (Ac-VSNKYFCSNIHW-NH2; not fully specified (bridges); printed as Ac-Val-Ser-Asn-Lys-Tyr-Phe-Cys-Ser-Asn-Ile-His-Trp-NH2; also: oxorhenium(V) N3S1 metal chelate (X-X-Cys)) [SEQ ID NO:8] |  |  |  |  | % Inhibition at 1 µM (uPA receptor): 0.0% |
| Ac-Val-Ser-Asn-Lys-Tyr-Phe-Ser-Asn-Cys-Ile-His-Trp-NH2 (Ac-VSNKYFSNCIHW-NH2; not fully specified (bridges); printed as Ac-Val-Ser-Asn-Lys-Tyr-Phe-Ser-Asn-Cys-Ile-His-Trp-NH2; also: oxorhenium(V) N3S1 metal chelate (X-X-Cys)) [SEQ ID NO:10] |  |  |  |  | % Inhibition at 1 µM (uPA receptor): 32.0% |
| Ac-Val-Ser-Asn-Lys-Tyr-Phe-Ser-Asn-Ile-Cys-His-Trp-NH2 (Ac-VSNKYFSNICHW-NH2; not fully specified (bridges); printed as Ac-Val-Ser-Asn-Lys-Tyr-Phe-Ser-Asn-Ile-Cys-His-Trp-NH2; also: oxorhenium(V) N3S1 metal chelate (X-X-Cys)) [SEQ ID NO:11] |  |  |  |  | % Inhibition at 1 µM (uPA receptor): 0.0% |
| Ala-Tyr-Cys-Ile-Gln-Asn-Ala-Pro-Leu-Gly-NH2 (AYCIQNAPLG-NH2; not fully specified (bridges); printed as Ala-Tyr-Cys-Ile-Gln-Asn-Ala-Pro-Leu-Gly-NH2; also: oxorhenium(V) N3S1 metal chelate (X-X-Cys)) [SEQ ID NO:158] | 1% | 6% |  |  |  |
| Ala-Tyr-Ile-Cys-Gln-Asn-Ala-Pro-Leu-Gly-NH2 (AYICQNAPLG-NH2; not fully specified (bridges); printed as Ala-Tyr-Ile-Cys-Gln-Asn-Ala-Pro-Leu-Gly-NH2; also: oxorhenium(V) N3S1 metal chelate (X-X-Cys)) [SEQ ID NO:157] | 0% | 0% |  |  |  |
| Ala-Tyr-Ile-Gln-Asn-Ala-Ala-Cys-Leu-Gly-NH2 (AYIQNAACLG-NH2; not fully specified (bridges); printed as Ala-Tyr-Ile-Gln-Asn-Ala-Ala-Cys-Leu-Gly-NH2; also: oxorhenium(V) N3S1 metal chelate (X-X-Cys)) [SEQ ID NO:152] | 1% | 0% |  |  |  |
| Ala-Tyr-Ile-Gln-Asn-Ala-Ala-Leu-Cys-Gly-NH2 (AYIQNAALCG-NH2; not fully specified (bridges); printed as Ala-Tyr-Ile-Gln-Asn-Ala-Ala-Leu-Cys-Gly-NH2; also: oxorhenium(V) N3S1 metal chelate (X-X-Cys)) [SEQ ID NO:151] | 0% | 0% |  |  |  |
| Ala-Tyr-Ile-Gln-Asn-Ala-Ala-Leu-Gly-Cys-NH2 (AYIQNAALGC-NH2; not fully specified (bridges); printed as Ala-Tyr-Ile-Gln-Asn-Ala-Ala-Leu-Gly-Cys-NH2; also: oxorhenium(V) N3S1 metal chelate (X-X-Cys)) [SEQ ID NO:150] | 0% | 0% |  |  |  |
| Ala-Tyr-Ile-Gln-Asn-Ala-Cys-Ala-Leu-Gly-NH2 (AYIQNACALG-NH2; not fully specified (bridges); printed as Ala-Tyr-Ile-Gln-Asn-Ala-Cys-Ala-Leu-Gly-NH2; also: oxorhenium(V) N3S1 metal chelate (X-X-Cys)) [SEQ ID NO:154] | 0% | 31% |  |  | activity at oxytocin receptor (oxytocin receptor): active |
| Ala-Tyr-Ile-Gln-Asn-Ala-Cys-Pro-Leu-Gly-NH2 (AYIQNACPLG-NH2; not fully specified (bridges); printed as Ala-Tyr-Ile-Gln-Asn-Ala-Cys-Pro-Leu-Gly-NH2; also: oxorhenium(V) N3S1 metal chelate (X-X-Cys)) [SEQ ID NO:153] | 0% | 2% |  |  |  |
| Ala-Tyr-Ile-Gln-Asn-Ala-Pro-Leu-Gly-Cys-NH2 (AYIQNAPLGC-NH2; not fully specified (bridges); printed as Ala-Tyr-Ile-Gln-Asn-Ala-Pro-Leu-Gly-Cys-NH2; also: oxorhenium(V) N3S1 metal chelate (X-X-Cys)) [SEQ ID NO:149] | 0% | 6% |  |  |  |
| Ala-Tyr-Ile-Gln-Asn-Cys-Ala-Pro-Leu-Gly-NH2 (AYIQNCAPLG-NH2; not fully specified (bridges); printed as Ala-Tyr-Ile-Gln-Asn-Cys-Ala-Pro-Leu-Gly-NH2; also: oxorhenium(V) N3S1 metal chelate (X-X-Cys)) [SEQ ID NO:155] | 0% |  |  |  | activity at oxytocin receptor (oxytocin receptor): maximal activity |
| Ala-Tyr-Ile-Gln-Cys-Asn-Ala-Pro-Leu-Gly-NH2 (AYIQCNAPLG-NH2; not fully specified (bridges); printed as Ala-Tyr-Ile-Gln-Cys-Asn-Ala-Pro-Leu-Gly-NH2; also: oxorhenium(V) N3S1 metal chelate (X-X-Cys)) [SEQ ID NO:156] | 0% | 18% |  |  | activity at oxytocin receptor (oxytocin receptor): active |
| Caca-D-Trp-Ile-Cys-Thr-Dap-Ala-Pro-Orn-NH2 |  |  | 52% | 0% |  |
| Caca-D-Trp-Ile-Thr-Cys-Dap-Ala-Pro-Orn-NH2 |  |  | 0% | 0% |  |
| Caca-D-Trp-Ile-Thr-Dap-Ala-Ala-Cys-Orn-NH2 |  |  | 0% | 0% |  |
| Caca-D-Trp-Ile-Thr-Dap-Ala-Ala-Orn-Cys-NH2 |  |  | 23% | 0% |  |
| Caca-D-Trp-Ile-Thr-Dap-Ala-Cys-Ala-Orn-NH2 |  |  | 0% | 0% |  |
| Caca-D-Trp-Ile-Thr-Dap-Ala-Cys-Pro-Orn-NH2 |  |  | 0% | 0% |  |
| Caca-D-Trp-Ile-Thr-Dap-Cys-Ala-Pro-Orn-NH2 |  |  | 22% | 9% |  |
| Pmp-D-Trp-Cys-Ile-Thr-Dap-Ala-Pro-Orn-NH2 |  |  | 23% | 0% |  |
| [Chg][dW]CIT[Dap]AP[Orn]-NH2 |  |  | 0% | 0% |  |
| [dChg][dW]CIT[Dap]AP[Orn]-NH2 |  |  | 8% | 0% |  |
